Source: the Human Domainome abundance scans (Beltran et al. 2025)
± gives the uncertainty stated by the source.

B1: Far upstream element-binding protein 2, residues 142 to 214; numbered along this chain, Q92945 (parent)
chain: RTSMTEEYRVPDGMVGLIIGRGGEQINKIQQDSGCKVQISPDSGGLPERSVSLTGAPESVQKAKMMLDDIVSR

Variants of: B1
Assay: abundance fitness (aPCA) (normalised: wild type 0, dead -1); higher = more abundant; growth selection in yeast, the domain comes from the species named
Conditions: Homo sapiens

Variant | abundance fitness
P47T | -0.018 ± 0.057
P47W | -0.32 ± 0.059
P47M | -0.009 ± 0.07
P47S | -0.021 ± 0.049
P47C | -0.014 ± 0.076
V37G | -0.905 ± 0.045
V37P | -0.62 ± 0.065
V37D | -0.597 ± 0.081
G22H | -0.234 ± 0.084
G22N | -0.167 ± 0.1
G16W | -0.229 ± 0.056
G16L | -0.495 ± 0.049
G16T | -0.101 ± 0.052
G16A | -0.037 ± 0.043
G16F | -0.499 ± 0.1
G16V | -0.619 ± 0.048
G16H | -0.019 ± 0.075
L17S | -0.021 ± 0.047
L17I | -0.045 ± 0.083
L17D | 0.061 ± 0.064
L17N | -0.119 ± 0.087

Variant | abundance fitness
L17P | -0.199 ± 0.051
L17F | -0.072 ± 0.078
T2A | -0.13 ± 0.045
T2P | -0.227 ± 0.052
T2R | -0.169 ± 0.04
E7D | -0.036 ± 0.057
E7M | -0.02 ± 0.049
E7H | 0.043 ± 0.069
K62H | -0.231 ± 0.07
K62G | -0.51 ± 0.043
K62A | -0.173 ± 0.044
K62F | -0.625 ± 0.098
I39C | -0.172 ± 0.075
I39K | -0.701 ± 0.087
I39S | -0.572 ± 0.053
I39G | -0.648 ± 0.047
I39Y | -0.386 ± 0.085
I39W | -0.304 ± 0.055
N27L | -0.076 ± 0.043
N27D | -0.029 ± 0.1
N27T | 0.007 ± 0.049

Variant | abundance fitness
N27W | -0.209 ± 0.045
N27F | -0.081 ± 0.097
N27H | -0.094 ± 0.077
G55Y | -0.878 ± 0.19
G55H | -0.887 ± 0.12
G55R | -0.965 ± 0.054
Q30S | -0.078 ± 0.047
Q30D | -1.02 ± 0.095
S40N | 0.097 ± 0.089
S40P | -0.011 ± 0.053
S40D | -0.076 ± 0.067
S40C | -0.057 ± 0.067
S40M | -0.024 ± 0.068
S40R | -0.029 ± 0.037
Q31S | -0.136 ± 0.048
Q31E | -0.08 ± 0.058
Q31W | -0.316 ± 0.054
G13A | -0.072 ± 0.044
G13V | -0.389 ± 0.047
G13S | 0.122 ± 0.041
G13P | -0.124 ± 0.046

Variant | abundance fitness
G13M | -0.052 ± 0.055
G13D | 0.134 ± 0.061
I18K | -0.333 ± 0.052
I18W | -0.562 ± 0.049
I18T | -0.282 ± 0.052
I18D | -0.312 ± 0.063
D69P | -0.589 ± 0.058
D69H | -0.165 ± 0.075
D69T | -0.103 ± 0.051
P57H | -0.213 ± 0.084
P57R | -0.141 ± 0.039
P57T | -0.325 ± 0.061
R9Q | 0.137 ± 0.05
R9C | -0.132 ± 0.061
R9S | -0.024 ± 0.042
R9M | 0.064 ± 0.058
R9V | -0.046 ± 0.04
V71D | -0.458 ± 0.073
V71K | -0.174 ± 0.057
V71Y | -0.22 ± 0.1
V71T | -0.032 ± 0.051
